Laboratory results: patent US11306331B2, “Processes for the production of hydroxycinnamic acids using polypeptides having tyrosine ammonia lyase activity” (CysBio ApS, priority 2014, dated 2022)

Tests used:
[1] = tested on: Saccharomyces cerevisiae CEN.PK102-5B; experiment: Specific production of pHCA and CA by S. cerevisiae expressing TAL enzymes; assay type: cell-based; details: 72 h, 30° C., +/- standard deviation
Source text: A number of the previously characterized enzymes were characterized when expressed in Saccharomyces cerevisiae. Genes encoding HaXAL1 and FjXAL were synthesized with codon optimization for S. cerevisiae available by GeneArt (Life Technologies), and were named HaXAL1 Sc and FjXALSc. Genes were amplified using the oligonucleotide (refer to specific name) shown in Table 6, and inserted by uracil-excision into the vector pCfB132 together with the PPGK1 promoter amplified by primers PPGK1_fw and PPGK1_rv (Jensen et al., 2014). The finished plasmids were transformed into Saccharomyces cerevisiae CEN.PK102-5B (MAT a ura3-52 his3Δ1 leu2-3/112 MAL2-8c SUC2) using a standard lithium acetate transformation protocol and selected for on synthetic drop-out media plates lacking uracil.
Cells were grown in SC medium without uracil, and diluted into Delft medium or Feed-In-Time (FIT) medium (m2p-labs) supplemented with leucine and histidine. After 72 h of incubation at 30° C. with shaking, samples were taken for the analysis of optical density at 600 nm and for clarification of the supernatant, which was analyzed by HPLC as described in example 1. The specific production was calculated as micromolar (μM) concentration per unit of optical density of the culture at 600 nm and is shown in Table 4.

[2] = substrate: N[C@@H](Cc1ccc(O)cc1)C(=O)O; experiment: In vitro kinetics of purified His-tagged FjXAL (tyrosine/phenylalanine ammonia lyase activity, absorbance at 315/295 nm); assay type: biochemical, Flavobacterium johnsoniae; details: other: FjXAL, 30° C, 1.56 μM to 200 μM tyrosine or 193 μM to 25 mM phenylalanine, pH 7.5
Protocol: (§1) The tyrosine ammonia lyase activity may for instance be determined in accordance to the following method: Enzymatic assays are performed in 200 μL volumes in wells in a UV transparent 96-well plate, by following the increase in absorbance at 315 nm (pHCA) using spectrophotometry or HPLC with UV detection. The reaction mixtures contain 2 μg of purified protein and are initiated by adding 1 mM tyrosine or 6 mM after equilibration to 30° C. The enzymatic activity is calculated as U/g, where U is defined as μmol substrate converted per minute. Negative controls contain no purified protein. Kinetic constants Km and vmax are determined from assays containing 1.56 μM to 200 μM tyrosine. See also Kyndt et al. (2002).
(§2) Four of the enzymes were further purified by His-tag purification as follows. A DNA linker (5′ phosphorylated oligonucleotides CBJP559 and CBJP560, Table 5) was inserted in place of the sequence between the NdeI and BgIII site in plasmid pCDFDuet-1. This would result in the addition of the amino acids MAHHHHHHENLYFQ (SEQ ID NO: 11) to the N-terminal end of the polypeptides. The resulting plasmid was amplified with primers CBJP575 and CBJP576 (table 5) and the genes were amplified and combined using the Gibson reaction (New England Biolabs). The PCR amplification used the same reverse primers as in example 1, but the forward primers matching the His-tag site of the linker (Table 5). Plasmids carrying the genes (e.g. FjXAL, FIG. 4) were transformed into electrocompetent E. coli BL21(DE3)pLysS cells (Life Technologies) and selected on LB plates containing 50 ug/mL streptomycin.
(§3) Strains expressing His-tagged versions of the enzymes were grown in LB media overnight at 37° C. and diluted into fresh LB media with 1 mM IPTG and growth was propagated overnight (approximately 18 h) at 30° C. Cells were harvested by centrifugation at 8000 rpm for 8 minutes, and disrupted by shearing into a buffer (50 mM Tris-HCl, 10 mM imidazole, 500 mM NaCl, 10% glycerol, pH 7.5). The homogenate was clarified by centrifugation at 10000 g for 10 min at 4° C., and the supernatant was loaded onto Ni2+-NTA resin column on an Äkta Pure system connected to a F9-C fraction collector (GE). Finally the fractions containing the purified polypeptide was dialyzed overnight against a buffer containing 50 mM Tris-HCl pH 7.5, 150 mM NaCl and 10% glycerol, flash-frozen in liquid nitrogen and stored at −80° C.
(§4) Enzymatic assays were performed in 200 μL volumes in wells in a UV transparent 96-well plate, by following the increase in absorbance at 315 nm (pHCA) or 295 nm (CA). […] The enzymatic activity was calculated as U/g, where U is defined as μmol substrate converted per minute.

[3] = substrate: N[C@@H](Cc1ccccc1)C(=O)O; experiment: as above; assay type: biochemical, Flavobacterium johnsoniae; details: other: FjXAL, 30° C, 1.56 μM to 200 μM tyrosine or 193 μM to 25 mM phenylalanine, pH 7.5
Protocol: as §1, §2, §3, §4

B1: Flavobacterium johnsoniae FjXAL tyrosine ammonia lyase (Protein GI 146298870), SEQ ID NO: 1, His-tagged (N-terminal tag SEQ ID NO: 11) (Flavobacterium … (protein)
chain: MNTINEYLSLEEFEAIIFGNQKVTISDVVVNRVNESFNFLKEFSGNKVIYGVNTGFGPMAQYRIKESDQIQLQYNLIRSHSSGTGKPLSPVCAKAAILARLNTLSLGNSGVHPSVINLMSELINKDITPLIFEHGGVGASGDLVQLSHLALVLIGEGEVFYKGERRPTPEVFEIEGLKPIQVEIREGLALINGTSVMTGIGVVNVYHAKKLLDWSLKSSCAINELVQAYDDHFSAELNQTKRHKGQQEIALKMRQNLSDSTLIRKREDHLYSGENTEEIFKEKVQEYYSLRCVPQILGPVLETINNVASILEDEFNSANDNPIIDVKNQHVYHGGNFHGDYISLEMDKLKIVITKLTMLAERQLNYLLNSKINELLPPFVNLGTLGFNFGMQGVQFTATSTTAESQMLSNPMYVHSIPNNNDNQDIVSMGTNSAVITSKVIENAFEVLAIEMITIVQAIDYLGQKDKISSVSKKWYDEIRNIIPTFKEDQVMYPFVQKVKDHLINN
B1 was tested, and the “Specific production of CA” value ([1]; Delft + Tyr (10 mM)) was 0 ± 0 μM OD600-1, the “Specific production of pHCA” value ([1]; Delft + Tyr (10 mM)) was 120 ± 16 μM OD600-1 and the “Specific production of CA” value ([1]; Delft medium) was 0 ± 0 μM OD600-1. For the same molecule, the “Specific production of pHCA” value ([1]; Delft medium) was 30 ± 3.5 μM OD600-1, the “Specific production of CA” value ([1]; FIT + Tyr (10 mM)) was 0 ± 0 μM OD600-1 and the “Specific production of pHCA” value ([1]; FIT + Tyr (10 mM)) was 120 ± 19 μM OD600-1. The “Specific production of CA” value ([1]; FIT medium) was 0 ± 0 μM OD600-1, the “Specific production of pHCA” value ([1]; FIT medium) was 130 ± 16 μM OD600-1 and the Km [2] was 0.0057 mM. For the same molecule, the Km [3] was 6.6 mM, the kcat [3] was 0.00817 s⁻¹ and the kcat/Km [3] was 1.23 M⁻¹ s⁻¹.
